Experimental data taken from the domain aggregation screens of Martell et al. (2025).

Test: soluble fraction after stress (log2 fold change); higher = more stays soluble; pooled small domains, quantitative proteomics
Details: stress: 75 degC
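Also: 20 min heating vs room temperature control held 20 min.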

| Sequence | soluble fraction (log2) |
| --- | --- |
| HMIKKAILPVAGLGTRFLPASKSIPKEMVTVVDRPAIEYVVREAVEAGIEQIILVTHSSKASIENYFDR | -0.192 |
| HMIKKLDIEPIIKSVVDDFNNIYKLKRGITISYLNDGKNKYFINGIENRIEQIIANLLDNSISFSEDNKDV | 0.0165 |
| HMIKLSTNENTALRLVMERGLVTESELKGLFDNPVAVMESLISKMIETNTHWIHSERSENGEWVYAWQ | -2.01 |
| HMIKNDIGKFIKLYRETHQWSQRELAEHLGVSQRNVSYYEKGERIPPADVLKKLSTLFDVPVDVLLGLK | -1.18 |
| HMIKRDLAFSEFIAEVKAGQVREVTIKGNSISGNLNDGREFNTYAPNDPNLVKTLTDQGVLIRAIPLE | 0.0691 |
| HMILNPQELGERIRKLRLKRNKTQSYFADMLYISSSYLALIESGKRVPNLDLLIHIAKFTDVTLDYLVFG | -1.24 |
| HMILVLKPGAPEDLKNELIHDIEKMGLRVHVSVGEGTTIIGLIGDTSKISKYTFSSYEIVSNVLRVT | -0.188 |
| HMILYDDEYKGPRYRYGLHSRPLSPGAVPKGFIIHSDRPHPDFRHGTLDYPVKLPDDRAANFELIFIGEFD | -1.59 |
| HMIMMTLGEKIRSIRKAKGMTQQELAEKLNTTKQTIGKYEKGIVTNLPLFRINELARALSTTPAYLTGW | -1.46 |
| HMIMPSDATEAKLLGVLGNEPLHVDEIRNQAELPIEKVSAALALMELKGMVRQVGGMNYVAVR | -0.0915 |
| HMIMQTTSDRINQRMRDLGLQHKDLVAATGASKGTVTNWINGVNNPTGKRLVQLAQALKTTSSWLLTGN | -0.481 |
| HMINDPSALGQRAFVDELLWMAGYVPEKIEIYQTLPNNSRVYRVKLDSVNGGFIFIRWDKKKKEHYV | 0.106 |
| HMINEEELLKIENIKRKYPDSKAALMPVLYFFQEKYGFISDDSIKEISQLLNISEVDIKGVVSFYEMFHEK | -1.32 |
| HMINEVVSLRDVPSFIGKAKRDVIRIAEENNLKIKINGNGYVKEQTPNPGNKYKSNQEIKVFLEPG | -0.0743 |
| HMINFSKNIISDTTSIKEAIEILNIISGRDNHILFVLNDKRQLIGTLSDGDVRRGMLASKTISQSVTEVM | -0.402 |
| HMINIDESIDESLSEDDAVLDLLERASASFTKAQEALLEGDLGRYQTLIEQADRLVAKALELLDEKN | -0.808 |
| HMINIQYSYNDGKETLHNLSPEVIAEKIMDDPNGYHIVWKQGMVGWVNANDIDDIAKLLRQKK | -0.311 |
| HMINKDNLIEEILKFINTKIADISSNNPLFDIVAKPYISKVVTNNVSKLDKALSLIADDKGMVDADGLLT | -0.129 |
| HMINLDGIGEKISRLRKEQGVTIRELSEYTGYSVGFLSNLETGKNSPTVESLQRVAEALRTDIIEILTK | -1.2 |
| HMINLNEVLANFQKSYPNLAGFKYDQGMDALVYEGNYIRLNGYMLSRINPTLFSMSPDDIFTYLKNGF | -3.17 |
| HMINRMGRLVEALSHMIANTKPGARLPSEPELARQLGVSRATLREAMRTFEAQGMIHRRQGAGTFVVH | -1.27 |
| HMINYSQKQLIAIQDELSKRFQALENESTKNNVTGFGVGLHYIDIDLIVNTPEKQKEFREKIMDSPAFRFN | -0.893 |
| HMINYYELLKLDMNAAHEEINDAIKLESEKNTIPEDQIRTMKSIFFNTEFKKEYDQRLMNFLLT | -0.671 |

| Sequence | soluble fraction (log2) |
| --- | --- |
| HMIPDAIDPDGRFKWRAGEAVVGFGRHAGEPLKKIAIENPEFLRWILKADFSTDVKKIASDALKGYFPEK | -0.488 |
| HMIPDLPAVGVNVHKERRRQQLSLDALAAGSGVSKAMLSQIESGKVNPTVATMWKIAHALGVDFELLLKGE | -0.982 |
| HMIPDPPALGSNLHRERRRQQLSLDALAAASGVSKAMLSQIEADKVNPTIATMWKIAHALNIDFETLLRGE | -0.963 |
| HMIPENKRVLISLTYIYGIGKKISQDILEKANIDSSIKTSQLTDDDVARIRQLIENDYLVEGELRV | 0.0291 |
| HMIPLPEDVASMRERLALTPEKADELFGLEDGSFARYEHGEEKVPFVVFQLLWLLGKYPHLIGELR | -1.2 |
| HMIPRGFSRYYILELLQKKPHTGKEIIDNAIKESGGRWNPSPGLIYPLLGRLLDENLIEETNDGKYK | -2.24 |
| HMIPSLTITVNEHSRQITRGTSLYTLRDALYPDADVLVVNGHPADSDRHLEEGDAVVLIRRGA | -0.456 |
| HMIQIQDIAFSEFLQELDKGNIVEVNIKGDLINGDLINGKKFKTVAPYDPNLVEKLSKQNVRINVEPIN | 0.157 |
| HMIQLKEHDVVRLRETIVENDEKIPAGTRGVVLSVYDGGRAFAVEVADDRAASAIITAFRDQLEVY | -0.467 |
| HMIQNTGMMESGDSIRGMALDAGFPLLMVVGYRGWTRKGNTPDSAAVYTEPFLNAFRLNYYLVEHDE | 0.3 |
| HMIQVNKTQALIIEEMRDNPNITLLELQKTLSLGRTAIQNNVSSLRKRQIIKRVGSNKNGYWEVTDK | -1.89 |
| HMIRQETYLLVRKAVGALPVQMRKIIELAMQGKKNAEIAAQLSISEGTVHTLKKTAYKKLRDRLQE | -3.12 |
| HMIRQGTKQALLIEMLQRPEGASITEIVEATSWQAHTARGAISGALKKKLGLPITSEKHPERGTVYKL | -0.862 |
| HMISAQEQALRNLKLSNGMTWKALAKALGITERSILSYVAAPGTKGYREMPAEVWHKLENISGH | -0.0432 |
| HMISDAEWTIMKALWQSEDKKMTLKEIAEAVADSGWSYTTVRTMVGRLVEKEAIEADESHPRNFRYSAA | -1.2 |
| HMISEGDIIKGTVIDVNEEEVILDLKYYAQGVIKAENLSNDPDFLAAGKISVGDEIEATVIKMDDGEGNIE | 0.529 |
| HMISESIPAKDALLRLLNTAYQTRTNAAGEFYFNDVPPGKYILQASVNDVEIIRENISINEN | -0.377 |
| HMISEWDAAYSYAKQYYEENGHLFVPKKYVTSEGAALGKWIWEQRDSYLGLSSYKISDKKIEMLEDIGMFW | -4.03 |
| HMISINVIGEMISGSYGNTPFSRTYEKDIYEQMVKLSDDADQAQTVEEYNKILAEFSLLTTEDLK | -0.546 |
| HMISKWGELVDLAVQLDIIQKSGSWFSMGDERIGQGANSVKDYLIANPDIAEKVEAEVRENLWKLN | -0.625 |
| HMISKYLRIESDILSAIREGRLKPGDKLPGQSEMRRIYNVSAITVRKAFTDLINDGYLVGVRGSGTYVAKR | -0.91 |
| HMISQATMEKMGLTNRERQLVDFIVRGASNQEISEKMFISINTVKIHVSNIFRKAGVRSRTELMDKYP | -3.26 |
| HMISSKDIINDEDGARLGKIADVEIDVATGKILSVHVYRSFKLLHLFGNKDVVQIPWNKIMKIGSDVVIVE | 0.102 |

| Sequence | soluble fraction (log2) |
| --- | --- |
| HMISVENLSNREFEIFQLIGNGFSTKEMAKKLNLSIYTVESHKKNIKEKLKLKNSSDLSKYAIQWVIMQN | -2.94 |
| HMITANNYFNEVERIGVETLPETLRKGHDLVVRSTNSGTNWSNYQNNESIRKVIDLYLQKLNEYVSTST | 0.294 |
| HMITGSIQPKNGKYYAVLNLYDHTGKRRPKWVSTGYTVKGNKKKAQEVLNELTRRYSAQLPPSK | -1.05 |
| HMITLPDFVGKDVETVKAWAKENGITLIVNKVEDSAKKDTVISQTPTTYDYSKIMKGSSFTVNVAKE | 0.206 |
| HMITNLEPFKDFVRGFSGLHLEGVGQEKLAAALDERIRKTGSANERDYLQLIMEDVAERLKLINILT | -0.627 |
| HMITPAARLRALKIRLSVDEVAQIVQRLVNGETVYQIGKPDTGGHAKATVGKINALRLAGQLHFL | -1.45 |
| HMITTLLVENLQDVGMRLDHYLVYNLIKYSRSHIQSFIRSGDIRVNGKKVKTGYSLELKDLIHIEMP | -3.66 |
| HMITVPKVINMSETQARQTLDALGLNVTLSATQVMNDKIPYGYVAAQSYSAGKEVPAGTTIELTMSIGL | -2.03 |
| HMIVDYPSFVGKTKQELEKWAKENNIIIRYRQLSVTASDKVKAQLPATTTYKRIMKGSSIEVELEL | -2.44 |
| HMIVIMKAKAEEEDVNRVIDTIQSLGLRTQLNLGAERMVVAVIGDISKIGEDNFFRIRAMKGVENTVFVSK | -2.12 |
| HMIVMPELRGKDLKEAERLLSSHNLRYELVDSVYDKSLAPGVVVEMVPQSGNTVKPGRIIFLSINA | -0.982 |
| HMIVNTTRAPYLLGETEQDAMRLARQAGLVPEIVRQSSAEPAGTVILQSHDFDYRMRRGSVILITVSTGPL | -2.84 |
| HMIVPPAIPFRALGIFGPRDRPIVTFEDGPRLINAREGDVLDGRFILRRVGRESVDFAFVGLPPEITRRIP | -0.571 |
| HMIVSEYIIIGGDKKEYGPVSMGEVGEWVQGGRANGDSKIKKVGTEEWGRLRDFPEFSAYLS | 0.121 |
| HMIVVMARETSTDDLEAIRERIESRGMVAQINLGVERTVIGVMGSIPPDFKDEMELMNGVVEVVMISK | -2.56 |
| HMIVVMKTSASERDLQEVIARIEQFGFATRSIVGSERATVSVLGAPLPDSLQEALERMPGVEEVVRITK | -1.48 |
| HMIYAEDFVGRQGTANTILRPSGRIEIEGEVYDAYTRGEYVEAGERVVVISQEGSTLKVRVV | -0.611 |
| HMIYQEGMQVKYQGKEYVISEIQDYKTYKTIKLDDNEGYLNGFITGSEILSFRNESELDLEI | -0.208 |
| HMIYSKSDLELFGIKKIDVMEENILMLILSEYELDQTPKNILIDEAVRLSKKFGADNAYKFVNATLDTLL | -1.15 |
| HMKAETILAIPENQPERLFPNNEDEARKIYRDLAREWHTDRNKSPKAQDVFSHLSKLYDIVIDRIKNKTWT | 0.194 |
| HMKAGRNTLARQMAILEVLQKDGRALVDDLAARFETTPQTIRKDLSALAEVNQISRFHGGAALVG | -0.159 |
| HMKAKTYTVQYIDEGKIIKEEELEEGSIINAPEVTKEGHTFIGWYEGEEKYDVYEPITRNLILESKNEIN | -0.176 |
| HMKALEGMRTVFTLADLATEPVTVEITVLEAFKYTTTLEIVQRPVLREWMTNPSMLIRVYHDASTAE | 0.0452 |
